Drawing on patent US20230025129A1 (KYMAB, published 2023), this text covers binding result and IC50 for four molecules.

Experiment [1] concerns the target T1, human matriptase-2 mask ECD protein his tag (human, UniProt Q8IU80 78-576).
T1 construct: MTP-2 ECD without the serine protease domain, with C-terminal linker and His tag; also called headless huMTP-2 ECD 78-576 aa; headless human MTP-2 ECD
T1 sequence: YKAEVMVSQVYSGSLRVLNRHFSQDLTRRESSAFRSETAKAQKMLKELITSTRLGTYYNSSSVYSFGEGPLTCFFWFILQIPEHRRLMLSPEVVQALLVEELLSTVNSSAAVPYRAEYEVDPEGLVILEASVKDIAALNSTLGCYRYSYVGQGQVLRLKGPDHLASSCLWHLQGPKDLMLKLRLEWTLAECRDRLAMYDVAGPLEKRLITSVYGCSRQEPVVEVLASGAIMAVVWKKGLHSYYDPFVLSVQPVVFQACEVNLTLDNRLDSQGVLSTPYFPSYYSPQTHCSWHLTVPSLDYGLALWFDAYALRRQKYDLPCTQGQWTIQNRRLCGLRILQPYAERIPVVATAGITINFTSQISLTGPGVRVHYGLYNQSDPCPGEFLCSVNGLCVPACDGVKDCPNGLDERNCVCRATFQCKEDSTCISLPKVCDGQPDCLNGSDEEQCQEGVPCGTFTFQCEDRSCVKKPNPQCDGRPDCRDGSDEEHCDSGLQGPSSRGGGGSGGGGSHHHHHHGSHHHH
Nature of the experiment: SPR (Table W). As to the method: Off-rate screening was performed by surface plasmon resonance (SPR), using a Biacore 8K system (GE Healthcare). Anti-human Fc mix (˜1000 RU) were immobilised in both active and reference channels in HBS-P+ buffer (GE BR100671) pH 7.4. Anti-MTP-2 hulgG4PE antibodies were then captured for 60 sec at 10 μl/min at 1 μg/ml concentration (approximatively 35 and 50 RU were captured) only on the active channel. MTP-2 ECD protein analytes were then injected (at 100, 25, 6.25, 1.56 and 0 nM concentrations) for 120 sec (association time) at 30 μl/min and dissociation monitored for 600 sec. Multiple cycle kinetics mode was used with all 8 channels being used. Reference and background were subtracted from the sensorgrams for each antibody and data was fitted using a 1:1 interaction model in the Biacore evaluation software. Rmax, ka, kd globally fitted, RI=0.
NORI-011, NORI-008, NORI-003 and NORI-006 were all found to have cross-reactive binding to human, mouse, cyno and rat MTP-2 ECD proteins. […] The true KD value for NORI-008 could not be measured accurately for human or mouse MTP-2 due to a very slow off-rate.

Experiment [2] addresses T2, human matriptase-2 ECD protein his tag (human, UniProt Q8IU80 78-811).
T2 construct: also called human MTP-2 ECD; huMTP-2
T2 sequence: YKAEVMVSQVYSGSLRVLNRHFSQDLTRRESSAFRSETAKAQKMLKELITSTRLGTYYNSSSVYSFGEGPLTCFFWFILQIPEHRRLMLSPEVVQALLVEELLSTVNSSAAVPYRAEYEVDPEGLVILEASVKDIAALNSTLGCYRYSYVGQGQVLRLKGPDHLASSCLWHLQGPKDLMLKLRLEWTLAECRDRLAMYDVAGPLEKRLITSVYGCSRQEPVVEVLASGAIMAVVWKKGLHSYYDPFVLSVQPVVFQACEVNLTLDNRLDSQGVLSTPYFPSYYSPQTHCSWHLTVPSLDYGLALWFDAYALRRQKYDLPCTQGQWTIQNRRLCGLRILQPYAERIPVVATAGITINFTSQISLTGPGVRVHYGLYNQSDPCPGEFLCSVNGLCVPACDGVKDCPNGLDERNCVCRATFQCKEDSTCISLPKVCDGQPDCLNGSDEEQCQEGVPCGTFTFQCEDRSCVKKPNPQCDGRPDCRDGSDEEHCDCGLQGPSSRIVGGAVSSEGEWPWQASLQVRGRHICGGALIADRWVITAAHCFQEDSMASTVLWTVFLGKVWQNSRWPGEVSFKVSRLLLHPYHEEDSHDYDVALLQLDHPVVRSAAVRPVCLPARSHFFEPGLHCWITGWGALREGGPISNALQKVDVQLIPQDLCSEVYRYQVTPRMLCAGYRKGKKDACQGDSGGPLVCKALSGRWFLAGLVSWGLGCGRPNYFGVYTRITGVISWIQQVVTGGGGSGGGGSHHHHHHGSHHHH
Nature of the experiment: HTRF competition with 647-labelled aprotinin for human MTP-2 protein. From the text:
Aprotinin is a pan serine protease inhibitor and is known to occupy the active site of serine proteases. A HTRF competition assay against labelled aprotinin confirmed that NORI-003, NORI-006, NORI-008 and NORI-011 were binding at or near this same site and competed with aprotinin for binding to human MTP-2 protein. […] This was confirmed by their lack of competition of aprotinin against moMTP-2 while IC50 values in the enzymatic assay were similar to those of NORI-011. […] FIG. 8. Table L.
Antibodies were titrated into HTRF buffer (DPBS (Gibco—14190144) with 0.1% BSA (Sigma—A7906) and potassium fluoride 0.53M (Sigma—60240-250 G)) at 4× conc with a starting concentration of 200 nM. 5 μL/w of antibodies were added to 384-well white plates (Greiner—784904). Purified proteins of huMTP-2 and moMTP-2 were diluted into HTRF buffer (huMTP-2=40 nM and moMTP-2=240 nM) 4× final conc and plate 5 μL/w. Anti-MTP-2 mAb (NORI-037) in molgG1 backbone was then diluted to 1.2 nM 4× final conc with DELFIA Eu-N1 Rabbit Anti-Mouse-IgG antibody (AD0207) at a 1:1000 dilution 4× final conc in HTRF buffer. Finally, dilute 647-labelled Aprotinin (Sigma—A3428) in HTRF buffer to 20 nM 4× final conc and plate 5 μL/w. Incubate plates for 3 hours or more at RT in the dark. Read plate using HTRF 100 flashes protocol on the EnVision plate reader at 1H 2H and 3H. (Ex: 340 nm Em1: 620 nm Em2: 665 nm).

B1: NORI-011 (antibody, human IgG4 S228P, lambda)
heavy: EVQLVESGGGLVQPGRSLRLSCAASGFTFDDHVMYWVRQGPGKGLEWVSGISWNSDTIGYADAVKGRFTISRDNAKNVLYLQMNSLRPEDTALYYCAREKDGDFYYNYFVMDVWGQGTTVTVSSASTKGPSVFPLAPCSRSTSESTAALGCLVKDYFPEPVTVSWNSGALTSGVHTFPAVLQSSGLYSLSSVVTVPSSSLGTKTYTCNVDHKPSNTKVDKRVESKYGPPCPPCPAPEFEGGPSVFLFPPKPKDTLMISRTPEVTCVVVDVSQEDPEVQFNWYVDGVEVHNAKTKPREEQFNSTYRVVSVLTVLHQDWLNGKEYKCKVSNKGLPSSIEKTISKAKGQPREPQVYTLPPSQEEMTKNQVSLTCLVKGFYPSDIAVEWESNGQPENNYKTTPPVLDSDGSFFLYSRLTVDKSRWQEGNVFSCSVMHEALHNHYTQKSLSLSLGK
light: QSALTQPPSASGSPGQSVTISCTGTSSDVGFYNFVSWYQQHPDKAPKVMIYEVSKRPSGVPDRFSGSKSGNTASLTVSGLQAEDEADYYCSSYAGSNKVVFGGGTKLTVLGQPKAAPSVTLFPPSSEELQANKATLVCLISDFYPGAVTVAWKADSSPVKAGVETTTPSKQSNNKYAASSYLSLTPEQWKSHRSYSCQVTHEGSTVEKTVAPTECS
notes: human IgG4PE, lambda; NORI-010 with a P124S mutation in the VH domain
In the case of B1, the binding result in experiment [1] is given as “no binding”. The molecule also registered an IC50 in experiment [2] of 17 nM.

B2: NORI-008 (antibody, human IgG4 S228P, kappa, V domains shown)
VH: QVQLQESGPGLVKPSETLSLTCSVSGGSVSSGRYYWTWIRQPPGKGLEWIGYISNSGNTNYNPSLKSRVTISLDTSKKQFSLSLSAVTAADTAVYYCARGFIYDYWFDPWGQGSLVTVSS
VL: DSQMTQSPSSLSASVGDRVTITCQASQDIDNYLNWYQQRPGKAPKLLIYDASKLETGVPSRFSGSGSGTDFTFTISSLQPEDFATYYCQQYGNLPITFGQGTRLDIKR
notes: human IgG4PE, kappa, in the in vitro assays; a mouse IgG1 format was used in one in vivo study only; also called NORI-008 hulgG4PE; NORI-008 IgG
B2: the binding result in experiment [1] is reported as “no binding”. The IC50 in experiment [2] is 0.256 nM.

B3: NORI-006 (antibody, human IgG4 S228P, kappa, V domains shown)
VH: EVQLVESGGGLIKPGRSLRLSCTGSGFTFGDFGLSWFRQAPGKGLEWISFIRSKPYGGTTDYAASVKGRFTISRDDSKNVAYLQMNSLKTEDTAVYYCARNEILTGYYIFDYWGQGTLVTVSS
VL: DIQMTQSPSSLSASLGDRVTITCQASQDINNYLNWYQVQPGKAPKLLIFDASILETGVPSRFSGSGSGTDFSFTISSLQPEDIATYYCQQYDNLPLTFGGGTKVDFKR
notes: human IgG4PE, kappa
Regarding B3, the binding result in experiment [1] is given as “no binding”. In experiment [2], this molecule showed an IC50 of 13.9 nM.

B4: NORI-003 (antibody, human IgG4 S228P, kappa, V domains shown)
VH: EVQLVESGGGLVKPGRSLRLSCTGSGFTFGDFGMSWFRQAPGKGLEWVGFIRSKPYGGTTDYAPSVRGRFSISRDDSKGIVYLQMNSLRTEDTAVYYCSRNEILTGYYIFDYWGQGTLVTVSS
VL: DIQMTQSPSSLSASLGDRVTITCQASHDITNYLIWYQQKPGKAPRLLIFDASILETGVPSRFSGSGSGTDFTFTISSLQPEDFATYYCQQYYNLPLTFGGGTKVDIKR
notes: human IgG4PE, kappa; NORI-002 with the free cysteine of the VH domain mutated (printed as 'C49C')
Turning to B4, in experiment [1], the binding result was “no binding”. Further, in experiment [2], the IC50 came out at 7.28 nM.
